Measurements reported in PMC4255732, “Structural and functional consequences of removing the N-terminal domain from the magnesium chelatase ChlH subunit of Thermosynechococcus elongatus” (Biochemical Journal, 2014).

Columns and labels:
[1] = biological target: magnesium chelatase ChlH subunit of Thermosynechococcus elongatus, wild type (Thermosynechococcus elongatus)
[2] = biological target: ΔN159ChlH, N-terminally truncated ChlH subunit of Thermosynechococcus elongatus (Thermosynechococcus elongatus)
[3] = biological target: magnesium chelatase ChlH subunit of Thermosynechococcus elongatus, wild type (Thermosynechococcus elongatus); assay: FRET or BRET; 0.1 μM ChlH (WT or ΔN159) labelled with Atto 488, titrated with Gun4 labelled with Alexa Fluor 532; quenching of emission at 524 nm; 50 mM Tricine/NaOH, 0.3 M glycerol, 200 mM NaCl, pH 7.7 (methods; the legend says 7.9), 45°C; apparent Kd from eqn (1)
[4] = biological target: ΔN159ChlH, N-terminally truncated ChlH subunit of Thermosynechococcus elongatus (Thermosynechococcus elongatus); assay: as above
[5] = biological target: T1, ΔN159ChlH (Thermosynechococcus vestitus, UniProt Q8DM52); assay: tryptophan fluorescence quenching; assay type: binding
T1 construct: gene chlH; N-terminal head domain and linker (159 residues) deleted, starts at Met160; His6-tagged (pET9aHis6); E. coli; about 130 kDa

[6] = biological target: T2, MgCH (WT ChlH–I–D) (Thermosynechococcus vestitus, UniProt Q8DM52); assay: continuous fluorescence assay of MgDIX formation at […] nm; assay type: biochemical; conditions: 8 μM DIX, 5 mM ATP, 15 mM MgCl2, 50 mM Mops/KOH pH 7.7, 45 °C, without Gun4
T2 construct: with Magnesium-chelatase subunit ChlI; Magnesium-chelatase subunit ChlD
T2 sequence (Q8DM52 1-1326): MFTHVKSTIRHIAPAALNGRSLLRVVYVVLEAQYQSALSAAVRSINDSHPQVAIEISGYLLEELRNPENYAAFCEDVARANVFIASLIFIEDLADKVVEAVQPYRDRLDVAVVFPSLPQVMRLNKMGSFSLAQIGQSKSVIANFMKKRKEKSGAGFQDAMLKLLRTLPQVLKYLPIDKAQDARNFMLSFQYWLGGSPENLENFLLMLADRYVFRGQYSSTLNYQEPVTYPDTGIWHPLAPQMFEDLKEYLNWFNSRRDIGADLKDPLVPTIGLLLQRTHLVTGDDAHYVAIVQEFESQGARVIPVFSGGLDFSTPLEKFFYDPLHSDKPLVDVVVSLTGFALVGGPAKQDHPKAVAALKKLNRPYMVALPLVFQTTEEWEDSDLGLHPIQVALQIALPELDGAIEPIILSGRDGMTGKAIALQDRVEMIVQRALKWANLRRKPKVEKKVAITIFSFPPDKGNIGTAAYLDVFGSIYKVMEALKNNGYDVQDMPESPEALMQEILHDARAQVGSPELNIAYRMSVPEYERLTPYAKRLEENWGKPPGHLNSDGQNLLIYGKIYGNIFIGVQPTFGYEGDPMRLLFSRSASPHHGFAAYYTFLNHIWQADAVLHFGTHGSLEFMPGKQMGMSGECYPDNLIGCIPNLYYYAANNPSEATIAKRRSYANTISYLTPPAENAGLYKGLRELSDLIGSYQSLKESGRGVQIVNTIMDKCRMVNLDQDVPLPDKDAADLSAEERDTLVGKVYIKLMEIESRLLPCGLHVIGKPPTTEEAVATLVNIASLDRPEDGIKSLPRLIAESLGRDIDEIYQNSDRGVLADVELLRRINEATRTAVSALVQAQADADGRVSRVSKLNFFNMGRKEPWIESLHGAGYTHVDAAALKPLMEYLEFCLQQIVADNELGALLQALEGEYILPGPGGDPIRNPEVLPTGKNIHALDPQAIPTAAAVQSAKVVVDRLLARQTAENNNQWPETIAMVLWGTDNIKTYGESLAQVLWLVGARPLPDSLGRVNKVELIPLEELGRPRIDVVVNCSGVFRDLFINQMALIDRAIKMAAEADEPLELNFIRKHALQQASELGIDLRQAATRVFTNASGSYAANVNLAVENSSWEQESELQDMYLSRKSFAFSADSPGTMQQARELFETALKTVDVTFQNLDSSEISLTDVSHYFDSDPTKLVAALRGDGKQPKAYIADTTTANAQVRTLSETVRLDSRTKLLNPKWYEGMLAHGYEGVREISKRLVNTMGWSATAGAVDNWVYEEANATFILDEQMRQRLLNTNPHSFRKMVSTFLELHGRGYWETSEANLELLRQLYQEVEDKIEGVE
T2 sequence (Q8DIS0 13-367 partner): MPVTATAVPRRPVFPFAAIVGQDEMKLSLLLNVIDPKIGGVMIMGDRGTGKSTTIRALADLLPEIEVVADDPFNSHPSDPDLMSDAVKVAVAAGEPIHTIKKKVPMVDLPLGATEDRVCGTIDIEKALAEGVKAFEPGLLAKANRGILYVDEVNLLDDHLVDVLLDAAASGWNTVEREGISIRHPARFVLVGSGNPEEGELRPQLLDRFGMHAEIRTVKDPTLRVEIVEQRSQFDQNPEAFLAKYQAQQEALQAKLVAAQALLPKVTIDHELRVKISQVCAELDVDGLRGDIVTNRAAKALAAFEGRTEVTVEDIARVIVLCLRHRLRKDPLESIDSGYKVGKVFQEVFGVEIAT
T2 sequence (Q8DJ18 1-668 partner): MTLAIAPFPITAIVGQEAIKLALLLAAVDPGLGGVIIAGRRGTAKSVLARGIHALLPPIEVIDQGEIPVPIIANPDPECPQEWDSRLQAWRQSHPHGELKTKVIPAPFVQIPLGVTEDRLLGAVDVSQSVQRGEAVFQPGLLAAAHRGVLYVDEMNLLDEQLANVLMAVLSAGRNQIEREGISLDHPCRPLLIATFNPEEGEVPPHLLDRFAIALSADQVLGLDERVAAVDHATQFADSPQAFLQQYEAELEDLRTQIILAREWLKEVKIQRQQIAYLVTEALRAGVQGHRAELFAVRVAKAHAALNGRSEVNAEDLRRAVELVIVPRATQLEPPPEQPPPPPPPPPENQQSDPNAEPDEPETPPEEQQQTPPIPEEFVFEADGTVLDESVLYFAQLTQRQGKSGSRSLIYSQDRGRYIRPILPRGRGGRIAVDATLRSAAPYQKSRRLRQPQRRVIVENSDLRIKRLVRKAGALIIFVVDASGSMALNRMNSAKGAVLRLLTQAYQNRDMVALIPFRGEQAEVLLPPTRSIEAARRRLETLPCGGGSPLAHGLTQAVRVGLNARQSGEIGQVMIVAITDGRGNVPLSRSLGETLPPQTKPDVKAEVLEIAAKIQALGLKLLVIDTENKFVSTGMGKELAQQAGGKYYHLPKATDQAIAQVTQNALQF

T1 sequence (Q8DM52 entry or part of it, stated change not applied): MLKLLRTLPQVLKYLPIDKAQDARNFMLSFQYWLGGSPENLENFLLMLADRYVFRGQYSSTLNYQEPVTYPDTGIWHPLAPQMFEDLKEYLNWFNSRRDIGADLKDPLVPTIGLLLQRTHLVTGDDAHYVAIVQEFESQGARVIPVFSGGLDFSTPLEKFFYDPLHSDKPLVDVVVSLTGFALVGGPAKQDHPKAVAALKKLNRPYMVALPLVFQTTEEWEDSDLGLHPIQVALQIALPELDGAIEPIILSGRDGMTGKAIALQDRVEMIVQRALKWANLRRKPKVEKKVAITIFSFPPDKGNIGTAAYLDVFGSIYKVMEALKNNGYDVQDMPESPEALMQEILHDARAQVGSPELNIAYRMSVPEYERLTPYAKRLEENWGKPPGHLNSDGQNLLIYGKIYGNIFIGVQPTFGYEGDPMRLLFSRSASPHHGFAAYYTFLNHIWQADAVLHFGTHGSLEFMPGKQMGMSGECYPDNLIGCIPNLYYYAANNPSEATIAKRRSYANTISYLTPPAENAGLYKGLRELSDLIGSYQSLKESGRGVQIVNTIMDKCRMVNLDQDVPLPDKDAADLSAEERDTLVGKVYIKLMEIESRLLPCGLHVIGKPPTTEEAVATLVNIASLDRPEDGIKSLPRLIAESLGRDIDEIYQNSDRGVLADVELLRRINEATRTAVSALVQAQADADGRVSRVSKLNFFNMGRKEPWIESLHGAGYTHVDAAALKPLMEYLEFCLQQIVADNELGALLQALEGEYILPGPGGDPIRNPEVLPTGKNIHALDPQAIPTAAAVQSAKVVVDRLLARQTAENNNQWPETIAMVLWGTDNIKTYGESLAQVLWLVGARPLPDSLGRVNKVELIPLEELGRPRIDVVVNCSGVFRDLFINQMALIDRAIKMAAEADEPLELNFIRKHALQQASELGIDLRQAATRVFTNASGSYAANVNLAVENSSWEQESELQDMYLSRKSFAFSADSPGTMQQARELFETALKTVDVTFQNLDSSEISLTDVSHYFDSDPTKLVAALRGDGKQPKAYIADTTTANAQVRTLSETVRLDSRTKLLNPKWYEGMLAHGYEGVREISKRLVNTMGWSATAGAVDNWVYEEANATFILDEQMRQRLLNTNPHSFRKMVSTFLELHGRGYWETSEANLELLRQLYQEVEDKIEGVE

Row | Compound | Kapp from steady-state magnesium chelatase rates against [Gun4] (0.1 μM ChlD, 0.2 μM ChlI, 0.4 μM ChlH, 45°C, eqn (2), nd held at 0.4) [1] [µM] | Kapp from steady-state magnesium chelatase rates against [Gun4] (0.1 μM ChlD, 0.2 μM ChlI, 0.4 μM ΔN159ChlH, 45°C, eqn (2), nd held at 0.4) [2] [µM] | Kd [3] [nM] | Kd [4] [nM] | Kd [5] [nM] | continuous fluorescence assay of MgDIX formation at 580 nm [6]
1 | Gun4 protein of Thermosynechococcus elongatus (natural protein) | 0.39 | 0.05 | 9 | 16 |  | 
2 | CC1=C(CCC(=O)O)c2cc3nc(cc4[nH]c(cc4C)cc4[nH]c(cc1n2)cc4C)C(C)=C3CCC(=O)O [DIX] |  |  |  |  | 1060 ± 90 | assayed for in vitro MgCH activity by continuously monitoring fluorescence from the MgDIX product
